Here are results for 1 substance from article PMC6085827.

The test deals with S-tagged long RECK isoform (human) (UniProt O95980). Kind of test: co-IP.
UniProt O95980, sequence (O95980 23-942): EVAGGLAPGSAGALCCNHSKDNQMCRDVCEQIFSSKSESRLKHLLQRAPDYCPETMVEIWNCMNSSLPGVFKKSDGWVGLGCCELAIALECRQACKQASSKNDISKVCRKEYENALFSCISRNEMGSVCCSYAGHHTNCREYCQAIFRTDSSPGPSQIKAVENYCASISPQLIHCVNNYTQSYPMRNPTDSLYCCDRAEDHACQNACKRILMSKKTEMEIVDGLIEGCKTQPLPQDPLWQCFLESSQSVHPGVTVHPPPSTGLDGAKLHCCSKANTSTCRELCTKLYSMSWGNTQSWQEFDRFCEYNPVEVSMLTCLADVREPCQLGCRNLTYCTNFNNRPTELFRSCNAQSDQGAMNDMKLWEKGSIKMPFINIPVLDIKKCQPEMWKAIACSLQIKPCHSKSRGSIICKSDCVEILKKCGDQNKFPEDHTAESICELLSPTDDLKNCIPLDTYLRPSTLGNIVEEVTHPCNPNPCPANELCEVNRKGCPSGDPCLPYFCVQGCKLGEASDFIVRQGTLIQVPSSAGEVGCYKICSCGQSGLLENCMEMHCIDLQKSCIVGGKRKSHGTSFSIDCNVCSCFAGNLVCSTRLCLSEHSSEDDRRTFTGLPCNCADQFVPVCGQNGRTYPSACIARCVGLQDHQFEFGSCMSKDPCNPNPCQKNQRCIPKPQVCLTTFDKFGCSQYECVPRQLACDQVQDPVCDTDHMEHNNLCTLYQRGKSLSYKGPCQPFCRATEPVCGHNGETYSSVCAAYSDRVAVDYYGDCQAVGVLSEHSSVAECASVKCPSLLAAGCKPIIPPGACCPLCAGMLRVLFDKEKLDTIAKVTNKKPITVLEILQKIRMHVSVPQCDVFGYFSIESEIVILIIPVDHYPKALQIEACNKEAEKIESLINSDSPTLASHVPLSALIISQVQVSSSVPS

Substance “Flag-tagged short RECK isoform (natural protein)” registered a percent reduction of MMP9 co-immunoprecipitated with long RECK of 88%.
